Test [1] has as its target T1, biotinylated N-glycopeptide A3Man (AVSHN(M3N2)ASLE) (also: biotinylated, position not given here).
T1 peptide: AVSHN(M3N2)ASLE
The test is described as follows: BLI.

The next test deals with G2PB. Kind of test: BLI. On the technique in general: In BLI a coated tip is dipped into the sample, and binding shifts an interference pattern.

No end group written: not given here. M3N2 = N-glycan

B1: Variant Fbs1-7 (designed binder)
chain: MGSSHHHHHHHHSSGENLYFQSHMASQQEGLVPEGSADEERDHWQQFYFLSKRRRNLLRNPCGEEDLEGWSDVEHGGDGWRVERLPGDGGVEFTQDDSVKKYFASSYRWCRKAQVIDLQAEGYWEELLDTTQPAIVVKDWYSGRTDAGSLYELTVRLLSENEDVLAEFATGQVAVPEDGSWMEISHTFIDYGPGVRFVRFEHGGQDSVYWKGWFGARVTNSSVWVEP
The term Kd denotes a measure of binding affinity in units of concentration. Higher therefore signals a looser complex. For B1, in test [1], the Kd was found to be 860 nM.

B2: Fbs1-6 (E153R.N159G.F177Y.E178R) (designed binder)
chain: MGSSHHHHHHHHSSGENLYFQSHMASQQEGLVPEGSADEERDHWQQFYFLSKRRRNLLRNPCGEEDLEGWSDVEHGGDGWRVRELPGDGGVEFTQDDSVKKYFASSYRWCRKAQVIDLQAEGYWEELLDTTQPAIVVKDWYSGRTDAGSLYELTVRLLSENEDVLAEFATGQVAVPEDGSWMEISHTFIDYGPGVRFVRFEHGGQDSVYWKGWFGARVTNSSVWVEP
In the test with G2PB, B2 returned a dissociation constant (Kd) of 790 nM.

B3: Variant Fbs1-1 (designed binder)
chain: MGSSHHHHHHHHSSGENLYFQSHMASQQEGLVPEGSADEERDHWQQFYFLSKRRRNLLRNPCGEEDLEGWSDVEHGGDGWRVEELPGDNGVEFTQDDSVKKYFASSFEWCRKAQVIDLQAEGYWEELLDTTQPAIVVKDWYSGRTDAGSLYELTVRLLSENEDVLAEFATGQVAVPEDGSWMEISHTFIDYGPGVRFVRFEHGGQDSVYWKGWFGARVTNSSVWVEP
Consider B3, for which the Kd in test [1] is 4300 nM.

B4: Fbs1-1 (WT) (designed binder)
chain: MGSSHHHHHHHHSSGENLYFQSHMASQQEGLVPEGSADEERDHWQQFYFLSKRRRNLLRNPCGEEDLEGWSDVEHGGDGWRVEELPGDNGVEFTQDDSVKKYFASSFEWCRKAQVIDLQAEGYWEELLDTTQPAIVVKDWYSGRTDAGSLYELTVRLLSENEDVLAEFATGQVAVPEDGSWMEISHTFIDYGPGVRFVRFEHGGQDSVYWKGWFGARVTNSSVWVEP
Molecule B4 came in with a Kd with G2PB of 27500 nM.

B5: Variant Fbs1-2 (designed binder)
chain: MGSSHHHHHHHHSSGENLYFQSHMASQQEGLVPEGSADEERDHWQQFYFLSKRRRNLLRNPCGEEDLEGWSDVEHGGDGWRVEELPGDNGVEFTQDDSVKKYFASSYRWCRKAQVIDLQAEGYWEELLDTTQPAIVVKDWYSGRTDAGSLYELTVRLLSENEDVLAEFATGQVAVPEDGSWMEISHTFIDYGPGVRFVRFEHGGQDSVYWKGWFGARVTNSSVWVEP
In turn, B5 registered a dissociation constant (Kd) in test [1] of 610 nM.

B6: Fbs1-3 (N159G.F177Y.E178R) (designed binder)
chain: MGSSHHHHHHHHSSGENLYFQSHMASQQEGLVPEGSADEERDHWQQFYFLSKRRRNLLRNPCGEEDLEGWSDVEHGGDGWRVEELPGDGGVEFTQDDSVKKYFASSYRWCRKAQVIDLQAEGYWEELLDTTQPAIVVKDWYSGRTDAGSLYELTVRLLSENEDVLAEFATGQVAVPEDGSWMEISHTFIDYGPGVRFVRFEHGGQDSVYWKGWFGARVTNSSVWVEP
B6 registered a Kd in the test with G2PB of 540 nM.

B7: Fbs1-7 (E154R.N159G.F177Y.E178R) (designed binder)
chain: MGSSHHHHHHHHSSGENLYFQSHMASQQEGLVPEGSADEERDHWQQFYFLSKRRRNLLRNPCGEEDLEGWSDVEHGGDGWRVERLPGDGGVEFTQDDSVKKYFASSYRWCRKAQVIDLQAEGYWEELLDTTQPAIVVKDWYSGRTDAGSLYELTVRLLSENEDVLAEFATGQVAVPEDGSWMEISHTFIDYGPGVRFVRFEHGGQDSVYWKGWFGARVTNSSVWVEP
B7 came in with a Kd with G2PB of 1450 nM.

B8: Variant Fbs1-6 (designed binder)
chain: MGSSHHHHHHHHSSGENLYFQSHMASQQEGLVPEGSADEERDHWQQFYFLSKRRRNLLRNPCGEEDLEGWSDVEHGGDGWRVRELPGDGGVEFTQDDSVKKYFASSYRWCRKAQVIDLQAEGYWEELLDTTQPAIVVKDWYSGRTDAGSLYELTVRLLSENEDVLAEFATGQVAVPEDGSWMEISHTFIDYGPGVRFVRFEHGGQDSVYWKGWFGARVTNSSVWVEP
Molecule B8 showed a dissociation constant Kd in test [1] of 200 nM.

B9: Fbs1-2 (F177Y.E178R) (designed binder)
chain: MGSSHHHHHHHHSSGENLYFQSHMASQQEGLVPEGSADEERDHWQQFYFLSKRRRNLLRNPCGEEDLEGWSDVEHGGDGWRVEELPGDNGVEFTQDDSVKKYFASSYRWCRKAQVIDLQAEGYWEELLDTTQPAIVVKDWYSGRTDAGSLYELTVRLLSENEDVLAEFATGQVAVPEDGSWMEISHTFIDYGPGVRFVRFEHGGQDSVYWKGWFGARVTNSSVWVEP
B9 had a Kd with G2PB of 26800 nM.

B10: Variant Fbs1-3 (designed binder)
chain: MGSSHHHHHHHHSSGENLYFQSHMASQQEGLVPEGSADEERDHWQQFYFLSKRRRNLLRNPCGEEDLEGWSDVEHGGDGWRVEELPGDGGVEFTQDDSVKKYFASSYRWCRKAQVIDLQAEGYWEELLDTTQPAIVVKDWYSGRTDAGSLYELTVRLLSENEDVLAEFATGQVAVPEDGSWMEISHTFIDYGPGVRFVRFEHGGQDSVYWKGWFGARVTNSSVWVEP
Take B10: binding in test [1] was characterised by a dissociation constant (Kd) of 880 nM.

B11: Fbs1-8 (E153R.E154R.N159G.F177Y.E178R) (designed binder)
chain: MGSSHHHHHHHHSSGENLYFQSHMASQQEGLVPEGSADEERDHWQQFYFLSKRRRNLLRNPCGEEDLEGWSDVEHGGDGWRVRRLPGDGGVEFTQDDSVKKYFASSYRWCRKAQVIDLQAEGYWEELLDTTQPAIVVKDWYSGRTDAGSLYELTVRLLSENEDVLAEFATGQVAVPEDGSWMEISHTFIDYGPGVRFVRFEHGGQDSVYWKGWFGARVTNSSVWVEP
B11 returned a dissociation constant (Kd) with G2PB of 1190 nM.

B12: Variant Fbs1-8 (designed binder)
chain: MGSSHHHHHHHHSSGENLYFQSHMASQQEGLVPEGSADEERDHWQQFYFLSKRRRNLLRNPCGEEDLEGWSDVEHGGDGWRVRRLPGDGGVEFTQDDSVKKYFASSYRWCRKAQVIDLQAEGYWEELLDTTQPAIVVKDWYSGRTDAGSLYELTVRLLSENEDVLAEFATGQVAVPEDGSWMEISHTFIDYGPGVRFVRFEHGGQDSVYWKGWFGARVTNSSVWVEP
For the molecule B12, in test [1], the Kd came out at 1140 nM.

The values are drawn from patent publication US20240109945A1 (published 2024).
